From patent US20220332804A1 (CSL INNOVATION, published 2022)

How the values were obtained:
Test in all cases: SPR, antibody captured, C2 as analyte;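 note: biacore SPR at 37 °C, anti-C2 mAbs captured via goat anti-human IgG on CM5 chips, double-referenced sensorgrams fit to a 1:1 kinetic or steady-state model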
human C2 G414A = biological target: T1, human C2 G414A (human, UniProt P06681 21-752)
T1 sequence: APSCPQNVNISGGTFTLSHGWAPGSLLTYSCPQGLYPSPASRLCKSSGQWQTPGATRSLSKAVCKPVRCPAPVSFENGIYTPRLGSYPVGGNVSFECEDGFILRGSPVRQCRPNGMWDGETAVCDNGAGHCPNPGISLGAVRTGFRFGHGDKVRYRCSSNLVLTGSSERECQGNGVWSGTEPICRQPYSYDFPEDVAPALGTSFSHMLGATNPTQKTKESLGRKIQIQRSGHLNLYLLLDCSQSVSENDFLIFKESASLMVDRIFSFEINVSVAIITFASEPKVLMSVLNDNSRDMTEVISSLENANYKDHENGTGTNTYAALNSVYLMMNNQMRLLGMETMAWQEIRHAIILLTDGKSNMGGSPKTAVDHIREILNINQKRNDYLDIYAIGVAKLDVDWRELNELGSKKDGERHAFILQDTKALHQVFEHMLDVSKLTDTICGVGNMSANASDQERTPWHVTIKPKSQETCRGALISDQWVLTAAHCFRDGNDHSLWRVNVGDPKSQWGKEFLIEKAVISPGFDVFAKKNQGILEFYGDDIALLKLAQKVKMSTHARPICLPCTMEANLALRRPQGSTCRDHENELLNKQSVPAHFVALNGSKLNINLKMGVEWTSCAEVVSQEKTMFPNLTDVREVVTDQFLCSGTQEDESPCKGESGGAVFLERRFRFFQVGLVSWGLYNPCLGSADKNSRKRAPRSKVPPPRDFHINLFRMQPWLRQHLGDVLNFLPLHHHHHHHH

human C2 D441A = biological target: T2, human C2 D441A (human, UniProt P06681 21-752)
T2 sequence: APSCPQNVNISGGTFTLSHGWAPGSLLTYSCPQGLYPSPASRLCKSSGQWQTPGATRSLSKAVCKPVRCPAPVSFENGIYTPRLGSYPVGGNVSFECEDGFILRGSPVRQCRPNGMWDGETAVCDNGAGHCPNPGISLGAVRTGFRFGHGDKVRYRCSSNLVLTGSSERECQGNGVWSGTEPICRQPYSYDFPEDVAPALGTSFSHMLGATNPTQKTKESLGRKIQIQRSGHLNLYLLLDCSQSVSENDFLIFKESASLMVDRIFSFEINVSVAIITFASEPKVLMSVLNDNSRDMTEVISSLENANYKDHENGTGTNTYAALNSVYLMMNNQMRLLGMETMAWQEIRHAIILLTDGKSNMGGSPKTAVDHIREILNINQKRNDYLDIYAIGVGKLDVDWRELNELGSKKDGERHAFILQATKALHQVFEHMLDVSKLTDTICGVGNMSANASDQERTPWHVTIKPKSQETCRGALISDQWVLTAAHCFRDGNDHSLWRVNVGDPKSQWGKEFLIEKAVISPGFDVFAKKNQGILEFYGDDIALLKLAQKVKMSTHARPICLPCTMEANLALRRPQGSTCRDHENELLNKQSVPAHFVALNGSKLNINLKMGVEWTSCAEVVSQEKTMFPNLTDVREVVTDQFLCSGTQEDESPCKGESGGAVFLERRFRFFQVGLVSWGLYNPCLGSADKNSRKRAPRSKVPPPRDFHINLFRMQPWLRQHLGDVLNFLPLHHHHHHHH

human C2 L439A = biological target: T3, human C2 L439A (human, UniProt P06681 21-752)
T3 sequence: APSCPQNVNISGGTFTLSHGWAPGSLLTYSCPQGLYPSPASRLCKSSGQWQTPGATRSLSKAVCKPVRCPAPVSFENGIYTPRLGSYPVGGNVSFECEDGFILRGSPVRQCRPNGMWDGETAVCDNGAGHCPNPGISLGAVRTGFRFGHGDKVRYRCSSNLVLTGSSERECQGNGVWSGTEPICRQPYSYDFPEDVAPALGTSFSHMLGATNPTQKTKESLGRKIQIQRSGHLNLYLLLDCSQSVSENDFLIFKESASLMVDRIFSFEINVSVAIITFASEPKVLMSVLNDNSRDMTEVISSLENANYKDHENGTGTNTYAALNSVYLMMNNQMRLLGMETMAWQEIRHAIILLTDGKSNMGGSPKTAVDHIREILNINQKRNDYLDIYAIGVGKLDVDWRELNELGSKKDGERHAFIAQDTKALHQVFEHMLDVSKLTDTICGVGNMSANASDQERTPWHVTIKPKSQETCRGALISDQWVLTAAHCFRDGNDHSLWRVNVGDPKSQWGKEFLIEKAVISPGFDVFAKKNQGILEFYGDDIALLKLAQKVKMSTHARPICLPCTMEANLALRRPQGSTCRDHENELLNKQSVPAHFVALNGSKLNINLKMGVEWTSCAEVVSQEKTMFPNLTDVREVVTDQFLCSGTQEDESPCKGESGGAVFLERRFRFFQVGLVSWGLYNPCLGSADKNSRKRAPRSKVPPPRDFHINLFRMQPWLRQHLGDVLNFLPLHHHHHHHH

human C2 K711A = biological target: T4, human C2 K711A (human, UniProt P06681 21-752)
T4 sequence: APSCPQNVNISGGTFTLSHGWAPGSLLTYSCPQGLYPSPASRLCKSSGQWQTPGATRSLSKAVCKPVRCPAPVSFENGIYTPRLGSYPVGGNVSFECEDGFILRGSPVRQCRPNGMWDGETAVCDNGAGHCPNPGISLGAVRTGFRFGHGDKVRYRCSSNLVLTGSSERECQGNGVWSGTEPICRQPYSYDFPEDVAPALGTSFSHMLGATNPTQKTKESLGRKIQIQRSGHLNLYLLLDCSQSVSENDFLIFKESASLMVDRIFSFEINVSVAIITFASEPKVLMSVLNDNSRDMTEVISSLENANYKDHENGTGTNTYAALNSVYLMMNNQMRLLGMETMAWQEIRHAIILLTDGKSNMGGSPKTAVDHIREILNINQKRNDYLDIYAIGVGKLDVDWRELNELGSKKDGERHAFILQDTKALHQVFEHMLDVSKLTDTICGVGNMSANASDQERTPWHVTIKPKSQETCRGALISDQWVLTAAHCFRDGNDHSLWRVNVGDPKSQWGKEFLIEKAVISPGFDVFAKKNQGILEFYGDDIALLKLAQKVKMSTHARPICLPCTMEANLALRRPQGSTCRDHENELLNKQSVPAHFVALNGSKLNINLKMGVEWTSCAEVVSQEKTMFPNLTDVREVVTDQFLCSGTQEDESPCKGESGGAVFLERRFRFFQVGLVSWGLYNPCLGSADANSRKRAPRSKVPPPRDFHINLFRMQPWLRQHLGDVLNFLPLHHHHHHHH

B1: RF16-226 (antibody, human IgG4 S228P, lambda)
heavy: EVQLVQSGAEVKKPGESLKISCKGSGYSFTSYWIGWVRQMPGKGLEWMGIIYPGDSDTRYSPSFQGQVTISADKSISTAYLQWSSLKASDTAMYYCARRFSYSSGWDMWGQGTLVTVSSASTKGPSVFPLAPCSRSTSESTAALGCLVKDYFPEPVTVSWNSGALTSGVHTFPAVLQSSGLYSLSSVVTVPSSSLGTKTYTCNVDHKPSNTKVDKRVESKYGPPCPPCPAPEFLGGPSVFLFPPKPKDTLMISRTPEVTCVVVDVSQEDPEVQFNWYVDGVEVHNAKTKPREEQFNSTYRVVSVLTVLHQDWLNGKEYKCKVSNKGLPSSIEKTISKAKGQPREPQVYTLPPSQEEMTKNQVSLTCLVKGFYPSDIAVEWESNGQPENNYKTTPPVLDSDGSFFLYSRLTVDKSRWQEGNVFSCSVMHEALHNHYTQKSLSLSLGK
light: SYELTQPPSVSVSPGQTARITCSGDALTSKYVAWYQQKSGLAPLLVIYEDTRRPSGIPAKFSGSSSGSVATLTISGAHGDDEADYYCYSTDASGHQRVFGGGTKLTVLSQPKAAPSVTLFPPSSEELQANKATLVCLISDFYPGAVTVAWKADGSPVKAGVETTKPSKQSNNKYAASSYLSLTPEQWKSHRSYSCQVTHEGSTVEKTVAPTECS
notes: pH-dependent anti-C2 antibody from a phage display library; also called WT
For B1, the Kd (human C2 G414A) was 11.2 nM, the Kd (human C2 D441A) was 63.9 nM and the Kd (human C2 L439A) was 118 nM. The Kd (human C2 K711A) was 49.6 nM.
